Earlier results as cited in patent US12420014B2, “Dosing of incretin pathway drugs” (Closed Loop Medicine Ltd., priority 2023, dated 2025).

Tests used:
[1] = all adverse effects, nausea, vomiting; FIG. 13 [1]
[2] = for a given plasma level; FIG. 2B [2]
[3] = PK studies
[4] = subcutaneous administration, patient study data

In the case of semaglutide, the “plasma level below which side effects reduce” value [1] is given as “less than 50 nmol/L”, the “HbA1c reduction at high starting HbA1c (>8.7%) relative to lower starting levels (<7.4%)” value [2] is given as 3 fold and the “dependence of plasma concentration on other co-medications” value [3] is given as “do not show a significant dependence”. The “higher clearance observed in patients with Type 2 diabetes” value [4] was 12%.
